This note sets out measurements from article PMC5815017.

Series [1] deals with T1, Spo0J (ParB) (Bacillus subtilis) (UniProt P26497).
T1 sequence: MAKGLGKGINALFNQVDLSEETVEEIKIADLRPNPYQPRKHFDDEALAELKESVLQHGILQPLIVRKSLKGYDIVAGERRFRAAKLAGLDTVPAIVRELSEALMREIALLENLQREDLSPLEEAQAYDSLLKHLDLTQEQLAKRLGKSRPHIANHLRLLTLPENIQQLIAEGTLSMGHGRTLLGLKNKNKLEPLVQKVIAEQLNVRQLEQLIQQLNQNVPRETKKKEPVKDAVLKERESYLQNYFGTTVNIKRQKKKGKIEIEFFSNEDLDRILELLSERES
Description: SPR. The note with it: apparent Kd; SPR (ReDCaT, Biacore T200), HBS-EP+: 10 mM HEPES pH 7.4, 150 mM NaCl, 3 mM EDTA, 0.005% Surfactant P20, 25 C; ParB given as dimer. A general note: SPR reads the build-up and loss of mass on a sensor chip optically.

Series [2] concerns the target T2, ParB (Caulobacter crescentus) (UniProt B8GW30).
T2 sequence: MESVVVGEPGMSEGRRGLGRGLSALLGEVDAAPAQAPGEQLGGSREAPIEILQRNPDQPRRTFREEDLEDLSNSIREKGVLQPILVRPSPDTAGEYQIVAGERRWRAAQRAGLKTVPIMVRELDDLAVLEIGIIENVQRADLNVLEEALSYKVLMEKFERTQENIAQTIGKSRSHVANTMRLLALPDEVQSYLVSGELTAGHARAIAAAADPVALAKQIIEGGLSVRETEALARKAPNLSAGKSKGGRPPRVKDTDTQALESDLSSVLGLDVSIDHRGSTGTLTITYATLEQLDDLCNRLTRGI
The series can be described thus: SPR. The note with it: value assigned by figure order; SPR (ReDCaT, Biacore T200), HBS-EP+: 10 mM HEPES pH 7.4, 150 mM NaCl, 3 mM EDTA, 0.005% Surfactant P20, 25 C; ParB given as dimer.

With “AGAATGTTCCACGTGAAACAAAGA / TCTTTGTTTCACGTGGAACATTCTCCTACCCTACGTCCTCCTGC [B. subtilis parS 359]”, the Kd in series [1] was found to be 114 nM. As for “CGATGTTTCCACGTGAAACAAGGC / GCCTTGTTTCACGTGGAAACATCGCCTACCCTACGTCCTCCTGC [parS site 7]”, the Kd in series [2] was 144 nM.
